# Measurements reported in publication PMC10996255.
# pEC50: −log10 of the molar value.
# Target: Recombinant human HER2 (human) (UniProt P04626)
# Assay: ELISA; recombinant HER2 (50 ng/well) coated in PBS pH 7.4; scFv or conjugate 250 to 0.005 nM, 4-fold dilutions in 5% skim milk in PBST, room temperature; detected by rabbit anti-His-tag antibody and HRP-linked anti-rabbit IgG
substance,measurement,value
4D5scFv-G178-HSA (from UniProt P02768 25-609),pEC50,8.83
